Patent publication EP4786492A1 (Simcere Zaiming Pharmaceutical Co., Ltd., dated 2026)

T1: human DLL3-his protein (human, UniProt Q9NYJ7 27-492)
T1 construct: also called human DLL3 protein; DLL3 antigen protein; not shown: His tag
T1 sequence: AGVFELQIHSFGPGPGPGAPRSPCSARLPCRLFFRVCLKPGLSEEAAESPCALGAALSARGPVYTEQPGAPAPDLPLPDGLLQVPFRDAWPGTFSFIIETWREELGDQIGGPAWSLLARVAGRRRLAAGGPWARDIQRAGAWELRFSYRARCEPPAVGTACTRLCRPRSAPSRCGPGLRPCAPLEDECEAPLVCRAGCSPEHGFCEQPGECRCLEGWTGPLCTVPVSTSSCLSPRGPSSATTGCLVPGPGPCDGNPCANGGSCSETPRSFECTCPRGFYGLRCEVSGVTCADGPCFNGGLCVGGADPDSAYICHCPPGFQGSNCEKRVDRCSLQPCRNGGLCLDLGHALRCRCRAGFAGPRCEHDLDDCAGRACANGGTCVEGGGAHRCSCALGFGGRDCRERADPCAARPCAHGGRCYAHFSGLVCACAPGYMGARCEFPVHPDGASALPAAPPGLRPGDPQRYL

T2: mouse DLL3 on CHO K1-mDLL3 cells (mouse, UniProt O88516 33-490)
T2 construct: also called mouse DLL3 recombinant cell line
T2 sequence: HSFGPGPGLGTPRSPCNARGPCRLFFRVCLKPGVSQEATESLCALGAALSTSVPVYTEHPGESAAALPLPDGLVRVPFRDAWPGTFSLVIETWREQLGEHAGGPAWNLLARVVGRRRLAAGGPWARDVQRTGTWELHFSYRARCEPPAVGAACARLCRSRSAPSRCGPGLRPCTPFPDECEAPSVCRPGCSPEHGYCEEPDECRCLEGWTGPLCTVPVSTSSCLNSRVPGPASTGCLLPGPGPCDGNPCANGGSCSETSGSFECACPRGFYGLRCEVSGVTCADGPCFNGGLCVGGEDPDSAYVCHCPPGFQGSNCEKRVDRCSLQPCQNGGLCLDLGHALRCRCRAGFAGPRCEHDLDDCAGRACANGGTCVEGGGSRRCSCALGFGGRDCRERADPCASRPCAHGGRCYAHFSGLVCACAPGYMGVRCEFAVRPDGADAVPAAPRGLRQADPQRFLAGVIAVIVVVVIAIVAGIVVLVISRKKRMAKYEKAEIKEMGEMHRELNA

T3: human DLL3 on CHO-K1 hDLL3 cells (human, UniProt Q9NYJ7 27-492)
T3 construct: also called human DLL3 recombinant cell line
T3 sequence: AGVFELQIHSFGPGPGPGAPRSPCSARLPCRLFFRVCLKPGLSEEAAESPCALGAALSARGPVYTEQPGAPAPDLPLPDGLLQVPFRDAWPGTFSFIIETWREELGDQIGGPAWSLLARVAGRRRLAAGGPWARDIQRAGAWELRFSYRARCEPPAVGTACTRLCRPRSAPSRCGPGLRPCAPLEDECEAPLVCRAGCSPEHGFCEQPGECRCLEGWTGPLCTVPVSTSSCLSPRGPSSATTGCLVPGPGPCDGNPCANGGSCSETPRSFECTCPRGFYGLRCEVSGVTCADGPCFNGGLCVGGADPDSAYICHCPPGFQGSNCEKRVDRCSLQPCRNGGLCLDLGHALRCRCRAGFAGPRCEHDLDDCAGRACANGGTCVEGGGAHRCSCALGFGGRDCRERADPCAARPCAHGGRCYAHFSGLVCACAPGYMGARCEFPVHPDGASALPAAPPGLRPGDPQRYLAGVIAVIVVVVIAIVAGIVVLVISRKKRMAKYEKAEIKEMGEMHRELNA

T4: monkey DLL3 on CHO K1-cyno DLL3 cells (cynomolgus monkey)
T4 construct: also called monkey DLL3 recombinant cell line
T4 chain: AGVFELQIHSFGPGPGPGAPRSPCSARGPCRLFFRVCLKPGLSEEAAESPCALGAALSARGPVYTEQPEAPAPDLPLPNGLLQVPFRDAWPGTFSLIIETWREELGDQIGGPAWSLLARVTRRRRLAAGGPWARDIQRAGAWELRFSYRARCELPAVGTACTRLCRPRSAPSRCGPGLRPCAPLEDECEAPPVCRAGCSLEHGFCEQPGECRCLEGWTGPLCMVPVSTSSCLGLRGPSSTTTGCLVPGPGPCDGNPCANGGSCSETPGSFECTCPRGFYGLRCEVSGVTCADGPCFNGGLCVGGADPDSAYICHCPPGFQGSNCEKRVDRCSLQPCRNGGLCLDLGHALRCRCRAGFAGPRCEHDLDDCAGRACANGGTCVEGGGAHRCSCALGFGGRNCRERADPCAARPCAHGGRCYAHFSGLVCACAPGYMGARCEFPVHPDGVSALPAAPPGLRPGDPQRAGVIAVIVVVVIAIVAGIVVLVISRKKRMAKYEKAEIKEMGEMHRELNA

T5: human DLL3 endogenously expressed on SHP77 and NCI-H82 cells (human, UniProt Q9NYJ7 27-618)
T5 construct: whole, on cells; cells endogenously expressing DLL3; also called SHP77 cells; SHP-77 cells
T5 sequence (looked up): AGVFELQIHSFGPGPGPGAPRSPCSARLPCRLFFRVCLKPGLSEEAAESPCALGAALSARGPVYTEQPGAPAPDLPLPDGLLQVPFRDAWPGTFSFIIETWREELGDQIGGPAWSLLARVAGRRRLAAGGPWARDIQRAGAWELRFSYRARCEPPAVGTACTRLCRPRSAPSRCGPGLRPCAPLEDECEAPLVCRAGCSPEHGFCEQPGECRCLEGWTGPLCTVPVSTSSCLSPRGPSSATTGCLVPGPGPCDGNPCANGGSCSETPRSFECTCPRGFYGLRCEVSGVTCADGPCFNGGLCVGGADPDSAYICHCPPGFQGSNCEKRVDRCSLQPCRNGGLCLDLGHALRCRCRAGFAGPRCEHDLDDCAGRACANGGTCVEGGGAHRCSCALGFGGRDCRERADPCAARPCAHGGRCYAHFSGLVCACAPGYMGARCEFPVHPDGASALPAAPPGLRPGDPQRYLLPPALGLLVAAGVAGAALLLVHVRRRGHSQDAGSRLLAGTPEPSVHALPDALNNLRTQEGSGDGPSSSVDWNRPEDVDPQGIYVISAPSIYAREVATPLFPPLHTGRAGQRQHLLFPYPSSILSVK


Assays:
[1] = molecular target: T1, human DLL3-his protein; test: ELISA
[2] = molecular target: T2, mouse DLL3 on CHO K1-mDLL3 cells; test: FACS, CHO K1-mDLL3 cells
[3] = molecular target: T3, human DLL3 on CHO-K1 hDLL3 cells; test: FACS, CHO-K1 hDLL3 cells
[4] = molecular target: T4, monkey DLL3 on CHO K1-cyno DLL3 cells; test: FACS, CHO K1-cyno DLL3 cells
[5] = molecular target: T5, human DLL3 endogenously expressed on …; test: FACS, SHP77 and NCI-H82 cells

binding result [1]	binding result [2]	binding result [3]	binding result [4]	binding result [5]	Binder
binds	no binding	binds	binds	binds	Hab008L1H2a-hFc (Fc fusion, humanized mab008, VL-linker-VH-human IgG1 Fc; also called Hab008 humanized molecule; not shown: linker; human IgG1 Fc fragment) scFv (part 1 of 2): DIQMTQSPSSLSASVGDRVTITCKASQNVGTAVAWYQQKPGKSPKLLIFSASIRYTGVPSRFSGSGSGTDFTLTISSLQPEDFATYYCQQYSSSPYTFGGGTKVEIK scFv (part 2 of 2): EVQLVQSGAEVKKPGASVKVSCKASGYTFTDYYMNWVRQAPGQRLEWMGIINPYNSGTSYNQKFRGRVTLTVDKSASTAYMELSSLRSEDTAVYYCSRYDYDYDVEGAMDYWGQGTTVTVSS
binds	no binding	binds	binds	binds	Hab008L3H2a-hFc (Fc fusion, humanized mab008, VL-linker-VH-human IgG1 Fc; also called Hab008 humanized molecule; not shown: linker; human IgG1 Fc fragment) scFv (part 1 of 2): DIVMTQSPDSLAVSLGERATINCKASQNVGTAVAWYQQKPGQSPKLLIFSASIRYTGVPDRFSGSGSGTDFTLTISSLQAEDVAVYYCQQYSSSPYTFGGGTKVEIK scFv (part 2 of 2): EVQLVQSGAEVKKPGASVKVSCKASGYTFTDYYMNWVRQAPGQRLEWMGIINPYNSGTSYNQKFRGRVTLTVDKSASTAYMELSSLRSEDTAVYYCSRYDYDYDVEGAMDYWGQGTTVTVSS
binds	no binding	binds	binds	binds	Hab008L1H5-hFc (Fc fusion, humanized mab008, VL-linker-VH-human IgG1 Fc; also called Hab008 humanized molecule; not shown: linker; human IgG1 Fc fragment) scFv (part 1 of 2): DIQMTQSPSSLSASVGDRVTITCKASQNVGTAVAWYQQKPGKSPKLLIFSASIRYTGVPSRFSGSGSGTDFTLTISSLQPEDFATYYCQQYSSSPYTFGGGTKVEIK scFv (part 2 of 2): EVQLVQSGAEVKKPGASVKVSCKASGYTFTDYYMNWVRRAPGQRLEWMGIINPYNGGTSYNQKFRGRVTITVDKSASTAYMELSSLRSEDTAVYYCSRYDYDYDVEGAMDYWGQGTTVTVSS
binds	no binding	binds	binds	binds	Hab008L3H5-hFc (Fc fusion, humanized mab008, VL-linker-VH-human IgG1 Fc; also called Hab008 humanized molecule; not shown: linker; human IgG1 Fc fragment) scFv (part 1 of 2): DIVMTQSPDSLAVSLGERATINCKASQNVGTAVAWYQQKPGQSPKLLIFSASIRYTGVPDRFSGSGSGTDFTLTISSLQAEDVAVYYCQQYSSSPYTFGGGTKVEIK scFv (part 2 of 2): EVQLVQSGAEVKKPGASVKVSCKASGYTFTDYYMNWVRRAPGQRLEWMGIINPYNGGTSYNQKFRGRVTITVDKSASTAYMELSSLRSEDTAVYYCSRYDYDYDVEGAMDYWGQGTTVTVSS
binds	binds	binds	binds	binds	Hab015VL4VH5a-hFc (Fc fusion, humanized mab015, VL-linker-VH-human IgG1 Fc; also called Hab015L4H5a; not shown: linker; human IgG1 Fc fragment) scFv (part 1 of 2): NIVLTQSPATLSLSPGERATLSCKASENVGTYVSWFQQKPGQSPRLLIYGASNRYTGIPARFSGSGSGTDFTLTISSLEPEDFAVYYCGQFYSFPSTFGGGTKVEIK scFv (part 2 of 2): EVQLVESGGGLVKPGGSLRLSCVASGITFSNFWMNWVRQAPGKGLEWVGQIRLKSDDYATHYAESVKGRFTISREDSKNTVYLQMNSLKTEDTAVYYCTTGYYFDYWGQGTTVTVSS
binds	binds	binds	binds	binds	Hab015VL5VH1a-hFc (Fc fusion, humanized mab015, VL-linker-VH-human IgG1 Fc; also called Hab015L5H1a; not shown: linker; human IgG1 Fc fragment) scFv (part 1 of 2): NIQMTQSPSSLSASVGDRVTITCKASENVGTYVSWYQQKPGKSPKLLIYGASNRYTGVPSRFSGSGSGTDFTLTISSLQPEDFATYYCGQFYSFPSTFGGGTKVEIK scFv (part 2 of 2): EVQLVESGGGLVKPGGSLRLSCAASGITFSNFWMNWVRQAPGKGLEWVGQIRLKSDDYATHYAESVKGRFTISREDSKNTVYLQMNSLKTEDTAVYYCTTGYYFDYWGQGTTVTVSS
binds	binds	binds	binds	binds	Hab015VL5VH5a-hFc (Fc fusion, humanized mab015, VL-linker-VH-human IgG1 Fc; also called Hab015L5H5a; not shown: linker; human IgG1 Fc fragment) scFv (part 1 of 2): NIQMTQSPSSLSASVGDRVTITCKASENVGTYVSWYQQKPGKSPKLLIYGASNRYTGVPSRFSGSGSGTDFTLTISSLQPEDFATYYCGQFYSFPSTFGGGTKVEIK scFv (part 2 of 2): EVQLVESGGGLVKPGGSLRLSCVASGITFSNFWMNWVRQAPGKGLEWVGQIRLKSDDYATHYAESVKGRFTISREDSKNTVYLQMNSLKTEDTAVYYCTTGYYFDYWGQGTTVTVSS
binds	binds	binds	binds	binds	Hab015VL4VH6a-hFc (Fc fusion, humanized mab015, VL-linker-VH-human IgG1 Fc; also called Hab015L4H6a; not shown: linker; human IgG1 Fc fragment) scFv (part 1 of 2): NIVLTQSPATLSLSPGERATLSCKASENVGTYVSWFQQKPGQSPRLLIYGASNRYTGIPARFSGSGSGTDFTLTISSLEPEDFAVYYCGQFYSFPSTFGGGTKVEIK scFv (part 2 of 2): EVQLVESGGGLVKPGGSLRLSCAASGITFSNFWMNWVRQAPEKGLEWVGQIRLKSDDYATHYAESVKGRFTISREDSKNTVYLQMNSLKTEDTAVYYCTTGYYFDYWGQGTTVTVSS
binds	binds	binds	binds	binds	Hab015VL5VH6a-hFc (Fc fusion, humanized mab015, VL-linker-VH-human IgG1 Fc; also called Hab015L5H6a; not shown: linker; human IgG1 Fc fragment) scFv (part 1 of 2): NIQMTQSPSSLSASVGDRVTITCKASENVGTYVSWYQQKPGKSPKLLIYGASNRYTGVPSRFSGSGSGTDFTLTISSLQPEDFATYYCGQFYSFPSTFGGGTKVEIK scFv (part 2 of 2): EVQLVESGGGLVKPGGSLRLSCAASGITFSNFWMNWVRQAPEKGLEWVGQIRLKSDDYATHYAESVKGRFTISREDSKNTVYLQMNSLKTEDTAVYYCTTGYYFDYWGQGTTVTVSS
